Values quoted from earlier work, collected in patent US8691960B2, “Oxidoreductases for enantioselective reactions” (Duke University, priority 2012, dated 2014).

Settings: literature (Dang et al. 2009; Gross et al. 2010)

HsIDH1-R132C: human cytosolic NADP+-dependent isocitrate dehydrogenase (HsIDH1) R132C cancer mutant
lowering of Vmax for neomorphic activity relative to HsIDH1-R132H: 2 fold
